Experimental data: patent US20150174289A1 (OMRIX BIOPHARMACEUTICALS, published 2015)

Target: T1, fibrin monomers (UniProt P02671 36-629; P02675 45-491; P02679 27-437)
T1 sequence (looked up) 1: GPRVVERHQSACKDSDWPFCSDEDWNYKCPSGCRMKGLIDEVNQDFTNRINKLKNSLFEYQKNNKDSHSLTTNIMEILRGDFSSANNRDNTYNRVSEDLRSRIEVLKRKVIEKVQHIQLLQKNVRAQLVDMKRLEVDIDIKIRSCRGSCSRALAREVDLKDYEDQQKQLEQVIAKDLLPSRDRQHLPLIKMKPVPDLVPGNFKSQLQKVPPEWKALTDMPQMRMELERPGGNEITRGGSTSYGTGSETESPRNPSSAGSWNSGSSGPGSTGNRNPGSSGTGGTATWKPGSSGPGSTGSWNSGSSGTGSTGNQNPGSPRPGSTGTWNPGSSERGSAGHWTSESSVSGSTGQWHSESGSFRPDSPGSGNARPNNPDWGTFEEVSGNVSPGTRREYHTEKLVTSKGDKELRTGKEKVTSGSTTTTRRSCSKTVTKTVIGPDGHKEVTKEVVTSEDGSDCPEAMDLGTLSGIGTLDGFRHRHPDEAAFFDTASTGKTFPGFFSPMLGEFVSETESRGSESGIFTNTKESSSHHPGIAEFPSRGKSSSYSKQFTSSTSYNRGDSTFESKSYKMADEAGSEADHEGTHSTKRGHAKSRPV
T1 sequence (looked up) 2: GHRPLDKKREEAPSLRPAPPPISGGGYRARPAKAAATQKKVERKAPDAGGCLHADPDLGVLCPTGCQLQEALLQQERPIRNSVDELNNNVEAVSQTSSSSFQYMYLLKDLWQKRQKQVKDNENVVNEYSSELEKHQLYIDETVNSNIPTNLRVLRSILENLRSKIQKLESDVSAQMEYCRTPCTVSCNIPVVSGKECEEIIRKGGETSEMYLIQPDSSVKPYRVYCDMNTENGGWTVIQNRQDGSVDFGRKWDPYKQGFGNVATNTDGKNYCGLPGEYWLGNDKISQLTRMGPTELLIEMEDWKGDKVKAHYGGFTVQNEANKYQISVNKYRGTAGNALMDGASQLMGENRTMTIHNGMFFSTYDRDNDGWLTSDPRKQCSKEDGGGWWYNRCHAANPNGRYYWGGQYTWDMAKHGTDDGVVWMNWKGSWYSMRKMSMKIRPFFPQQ
T1 sequence (looked up) 3: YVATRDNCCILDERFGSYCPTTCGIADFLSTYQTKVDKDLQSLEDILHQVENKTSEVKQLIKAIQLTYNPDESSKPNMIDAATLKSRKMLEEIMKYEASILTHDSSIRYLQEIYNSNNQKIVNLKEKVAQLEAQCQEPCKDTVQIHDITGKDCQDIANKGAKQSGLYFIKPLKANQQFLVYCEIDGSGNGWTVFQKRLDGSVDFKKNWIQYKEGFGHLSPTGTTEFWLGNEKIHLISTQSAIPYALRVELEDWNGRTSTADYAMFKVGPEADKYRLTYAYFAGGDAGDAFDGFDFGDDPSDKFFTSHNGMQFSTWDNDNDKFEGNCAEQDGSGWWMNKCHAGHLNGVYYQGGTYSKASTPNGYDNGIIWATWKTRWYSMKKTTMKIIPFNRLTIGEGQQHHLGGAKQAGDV
Assay: cell-based or functional assay

## GPRP [GPRP peptide (Gly-Pro-Arg-Pro)]
  Time to clot (1% fibrin monomers, 1 mM GPRP, 34 fold GPRP:fibrin): < 5 min
  Time to clot (1% fibrin monomers, 5 mM GPRP, 170 fold GPRP:fibrin): 4 h
  Time to clot (1.5% fibrin monomers, 20 mM GPRP, 453 fold GPRP:fibrin): > 2 weeks
  Time to clot (3% fibrin monomers, 0.1 mM GPRP, 1.1 fold GPRP:fibrin): 5 s
  Time to clot (3% fibrin monomers, 0.2 mM GPRP, 2.3 fold GPRP:fibrin): 7 s
  Time to clot (3% fibrin monomers, 0.5 mM GPRP, 5.7 fold GPRP:fibrin): 11 s
  Time to clot (3% fibrin monomers, 1 mM GPRP, 11.3 fold GPRP:fibrin): 13 s
  Time to clot (3% fibrin monomers, 1.5 mM GPRP, 17 fold GPRP:fibrin): 22 s
  Time to clot (3% fibrin monomers, 2 mM GPRP, 22.7 fold GPRP:fibrin): 28 s
  Time to clot (3% fibrin monomers, 3 mM GPRP, 34 fold GPRP:fibrin): 2.5 min
  Time to clot (3% fibrin monomers, 4 mM GPRP, 45 fold GPRP:fibrin): 8 min
  Time to clot (3% fibrin monomers, 5 mM GPRP, 56.7 fold GPRP:fibrin): 15 min
  Time to clot (3.5% fibrin monomers, 40 mM GPRP, 389 fold GPRP:fibrin): > 2 weeks
